The target of test [1] is FLA10, the 90-kD subunit of FLA10 kinesin-II (fla10 gene product) (Chlamydomonas reinhardtii (endogenous in flagella)) (UniProt P46869). Description: SEC + other: sucrose density gradient centrifugation.
Test [2] has the same target. Described as above. This is another data set of the same source.
Test [3] deals with T1, FLA10, the 90-kD subunit of FLA10 kinesin-II (fla10 gene product) (Chlamydomonas reinhardtii (endogenous …, UniProt P46869 1-786)).
T1 sequence (looked up): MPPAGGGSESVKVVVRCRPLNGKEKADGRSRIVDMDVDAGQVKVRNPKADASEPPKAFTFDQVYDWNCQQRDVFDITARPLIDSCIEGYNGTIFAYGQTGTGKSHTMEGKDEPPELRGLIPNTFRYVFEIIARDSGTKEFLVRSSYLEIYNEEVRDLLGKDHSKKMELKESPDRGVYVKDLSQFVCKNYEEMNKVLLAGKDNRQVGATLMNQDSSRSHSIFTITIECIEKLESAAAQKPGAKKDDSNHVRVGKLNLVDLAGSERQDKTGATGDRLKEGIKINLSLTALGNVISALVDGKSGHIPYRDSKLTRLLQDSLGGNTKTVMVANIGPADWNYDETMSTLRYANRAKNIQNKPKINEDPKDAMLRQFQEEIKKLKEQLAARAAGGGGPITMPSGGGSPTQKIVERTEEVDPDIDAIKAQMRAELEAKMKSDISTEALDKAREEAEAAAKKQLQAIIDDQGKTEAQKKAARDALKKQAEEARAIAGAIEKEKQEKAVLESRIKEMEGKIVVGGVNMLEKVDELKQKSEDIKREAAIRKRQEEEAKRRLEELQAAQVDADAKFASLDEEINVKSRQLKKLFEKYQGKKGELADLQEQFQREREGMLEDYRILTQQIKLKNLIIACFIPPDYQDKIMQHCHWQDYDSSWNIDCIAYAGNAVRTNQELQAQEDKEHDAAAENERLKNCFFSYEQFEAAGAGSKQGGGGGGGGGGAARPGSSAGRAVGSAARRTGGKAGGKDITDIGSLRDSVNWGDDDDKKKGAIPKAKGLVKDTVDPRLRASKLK
The description is as above.

Test [4] deals with T2, p172, IFT particle polypeptide of complex B (Chlamydomonas reinhardtii (endogenous in flagella)), Q5DM57.
T2 chain: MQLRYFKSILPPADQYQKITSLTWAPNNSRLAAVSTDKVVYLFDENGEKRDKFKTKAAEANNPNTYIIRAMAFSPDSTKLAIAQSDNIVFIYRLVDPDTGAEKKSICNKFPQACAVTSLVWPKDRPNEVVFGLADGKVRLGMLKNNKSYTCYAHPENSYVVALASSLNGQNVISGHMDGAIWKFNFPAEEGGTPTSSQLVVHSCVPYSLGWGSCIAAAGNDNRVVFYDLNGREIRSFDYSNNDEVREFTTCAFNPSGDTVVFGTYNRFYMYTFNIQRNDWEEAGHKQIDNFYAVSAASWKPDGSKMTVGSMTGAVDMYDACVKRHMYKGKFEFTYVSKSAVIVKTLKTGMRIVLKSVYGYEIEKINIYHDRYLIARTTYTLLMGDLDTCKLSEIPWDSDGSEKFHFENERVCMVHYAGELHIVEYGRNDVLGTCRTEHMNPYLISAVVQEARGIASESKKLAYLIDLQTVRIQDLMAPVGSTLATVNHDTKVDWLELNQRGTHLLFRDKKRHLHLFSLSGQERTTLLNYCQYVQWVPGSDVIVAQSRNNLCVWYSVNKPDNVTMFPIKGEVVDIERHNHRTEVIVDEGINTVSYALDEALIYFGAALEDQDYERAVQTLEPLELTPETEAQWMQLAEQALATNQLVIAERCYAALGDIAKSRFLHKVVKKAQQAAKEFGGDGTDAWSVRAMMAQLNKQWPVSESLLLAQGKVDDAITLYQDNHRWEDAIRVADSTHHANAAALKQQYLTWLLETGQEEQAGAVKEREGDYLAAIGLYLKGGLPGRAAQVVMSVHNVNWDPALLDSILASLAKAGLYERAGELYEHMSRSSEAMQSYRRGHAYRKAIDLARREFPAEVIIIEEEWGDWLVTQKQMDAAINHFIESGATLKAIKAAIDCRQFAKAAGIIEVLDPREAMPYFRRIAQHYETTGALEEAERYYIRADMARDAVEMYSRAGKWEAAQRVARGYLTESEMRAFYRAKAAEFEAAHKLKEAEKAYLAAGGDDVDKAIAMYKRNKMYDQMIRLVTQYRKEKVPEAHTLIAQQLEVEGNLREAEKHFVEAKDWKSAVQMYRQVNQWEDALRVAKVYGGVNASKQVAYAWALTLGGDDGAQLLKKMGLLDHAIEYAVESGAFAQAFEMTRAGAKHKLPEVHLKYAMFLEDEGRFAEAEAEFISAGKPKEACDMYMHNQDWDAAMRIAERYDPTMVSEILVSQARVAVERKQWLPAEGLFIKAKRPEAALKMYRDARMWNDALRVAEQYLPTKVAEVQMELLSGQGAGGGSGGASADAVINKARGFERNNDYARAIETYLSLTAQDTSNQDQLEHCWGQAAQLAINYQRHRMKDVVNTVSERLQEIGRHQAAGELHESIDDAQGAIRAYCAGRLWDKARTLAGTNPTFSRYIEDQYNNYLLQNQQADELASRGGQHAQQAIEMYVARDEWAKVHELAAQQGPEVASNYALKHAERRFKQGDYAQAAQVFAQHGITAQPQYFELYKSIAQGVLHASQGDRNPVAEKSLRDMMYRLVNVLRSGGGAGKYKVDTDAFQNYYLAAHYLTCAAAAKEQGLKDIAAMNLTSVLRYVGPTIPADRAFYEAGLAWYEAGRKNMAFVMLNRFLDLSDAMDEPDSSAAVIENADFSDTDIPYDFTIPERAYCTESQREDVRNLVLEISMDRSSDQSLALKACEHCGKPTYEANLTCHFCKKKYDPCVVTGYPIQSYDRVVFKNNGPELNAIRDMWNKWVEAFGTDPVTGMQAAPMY
Description: sucrose density gradient centrifugation. The settings on record: remark: other sources report otherwise.

Read-outs that look alike come from different tables or passages of the source.

Consider 3 molecules from PMC2132775 (The Journal of Cell Biology, 1998).

As a reminder, the stoichiometry N is a count of units in the complex or per binding partner. As for “100-kD nonmotor subunit of FLA10 kinesin-II (natural protein)”, the stoichiometry N in test [1] is 0.8; in test [2] it was 1.

B1: 85-kD subunit of FLA10 kinesin-II (natural protein, UniProt A7LGV1 1-768, looked up)
chain: MASGGECVKVAVRCRPLNGKEKGDNRATIVEVDNKTGQVTLNNPKGDEPPKTFTFDNAFDWNVTQRDVYDVVARPIVNSVMDGYNGTIFAYGQTGTGKTHTMEGFPTPELQGIIPNCFDHVFETVNSSTGKQWMVRASYLEIYNEEVRDLLSKDPKNKLELKEHKDSGVYVKGLNAFVVKGVPELKNVLEVGKKNRSVGATLMNQDSSRSHSIFTITIETIEQTQAQPEGHIRVGKLNLVDLAGSERQSKTGATGDRLKEATKINLSLSALGNVISALVDGKSGHVPYRDSKLTRLLQDSLGGNTKTIMCANMGPADWNYDETLSTLRYANRAKNIKNKPKINEDPKDAMLREFQDEIARLKAALEAEGGALPEGFATGPGGEIIVEKVVQVPKALDASFLEQMRKDMEEQMKKELASQQAAALNDEQLQKVKEEAAAKAKAEAARLEEEKKKAEEEAARMQRKQQKIKAEMDKKSLDAEQIRAEKEALAKKLKAMESKILKGDQAGGLAEVTKKKEEELKRKEQELERRRKEEEEQRKKIQVMEEQQLAMEDKYKDKADEADQKTKKLKKLWKKFQEVNAEVEDMYKEFQREKEDLLESIRMLQDQMQLKDMVIEAFIPPEEVQKVMKRAHWDDEREVWVLERLSDIGKRETAQGASRRPVSASGQRRPTSDFAKLANAMGDMNPRFKSENILNLELDLPERTTYDYEGPGVDPRVQAAINAAFAEDGELIFVGSEQNVHLGDASAAAARPDSAKKRPASARKGTKK
For B1, the “stoichiometry N” value in test [3] was found to be 1.

B2: p81, IFT particle polypeptide of complex B, Q68RJ5 1-683 (natural protein)
chain: MGDVSYIVDSLGLPPFSYQMSLLSFTEKGPQELLQLLSDVFSTISPKHQKVDVAKEVPDQTADRLIGFLKIIKYRPNVQDPLLFRQLVAAGDRETLYQILRWVVPQAQLLEKRAFVGYYLSFPDMPEEFNFDPDIMELKEEIKAMQQEFIELHKSSDAIKTLSKDTQALKNKIKSLEEEKERLGEKVERAKGAVDKLPDRSSYMEVCTNLRKQQDEEVNLSTAIQTQRALQEKAEASYHRAAARLRELQTSYQEGSAGKLLETLNEDVKNLRAQVNERYPKEVEKRQKRQAALSEALASGISTEMDLQRLQHQATALHNQITEIQERKVAQDKARQGDKAYLQLRQAQQMATVSARKKEELGAKQERLQEKKTALTAQLDKLNAEGGGSGAVFSEEEWRTKYESMKSKLPIYKKMKKELGDLEAEVFVLAHTEELLASQEGGLLEKVKRLEKQQGISGFTETAQHLEKVSEAKSQMDEEKGMTLIEISRTVEEINNAINQRKQQLAPQIKKLRSVRQDFAEFEAKYLEKKTAYDNVVATFEARTSALEGEVSGLKAEVSENETKYHMLHCQLHITDQNIKKVTSGPAAERLRDKYEAKVKEAEDSTKALRDRQREIKDTHSTGLSQIDIMNDMLRLLQLKLNLARGIAVDMSQYGGGGGAAGGANGGMAGQTYDTGSANVLQL
B2 returned a stoichiometry N in test [4] of 1.
